Numbering of substitutions follows the chain as printed. In names and notes the source's numbering stands.
B1: Colicin E3 (protein, listed as Escherichia coli)
chain: MSGGDGRGHNTGAHSTSGNINGGPTGLGVGGGASDGSGWSSENNPWGGGSGSGIHWGGGSGHGNGGGNGNSGGGSGTGGNLSAVAAPVAFGFPALSTPGAGGLAVSISAGALSAAIADIMAALKGPFKFGLWGVALYGVLPSQIAKDDPNMMSKIVTSLPADDITESPVSSLPLDKATVNVNVRVVDDVKDERQNISVVSGVPMSVPVVDAKPTERPGVFTASIPGAPVLNISVNNSTPAVQTLSPGVTNNTDKDVRPAGFTQGGNTRDAVIRFPKDSGHNAVYVSVSDVLSPDQVKQRQDEENRRQQEWDATHPVEAAERNYERARAELNQANEDVARNQERQAKAVQVYNSRKSELDAANKTLADAIAEIKQFNRFAHDPMAGGHRMWQMAGLKAQRAQTDVNNKQAAFDAAAKEKSDADAALSSAMESRKKKEDKKRSAENNLNDEKNKPRKGFKDYGHDYHPAPKTENIKGLGDLKPGIPKTPKQNGGGKRKRWTGDKGRKIYEWDSQHGELEGYRASDGQHLGSFDPKTGNQLKGPDPKRNIKKYL
B2: Colicin E1 (protein, listed as Escherichia coli)
chain: METAVAYYKDGVPYDDKGQVIITLLNGTPDGSGSGGGGGKGGSKSESSAAIHATAKWSTAQLKKTQAEQAARAKAAAEAQAKAKANRDALTQRLKDIVNEALRHNASRTPSATELAHANNAAMQAEDERLRLAKAEEKARKEAEAAEKAFQEAEQRRKEIEREKAETERQLKLAEAEEKRLAALSEEAKAVEIAQKKLSAAQSEVVKMDGEIKTLNSRLSSSIHARDAEMKTLAGKRNELAQASAKYKELDELVKKLSPRANDPLQNRPFFEATRRRVGAGKIREEKQKQVTASETRINRINADITQIQKAISQVSNNRNAGIARVHEAEENLKKAQNNLLNSQIKDAVDATVSFYQTLTEKYGEKYSKMAQELADKSKGKKIGNVNEALAAFEKYKDVLNKKFSKADRDAIFNALASVKYDDWAKHLDQFAKYLKITGHVSFGYDVVSDILKIKDTGDWKPLFLTLEKKAADAGVSYVVALLFSLLAGTTLGIWGIAIVTGILCSYIDKNKLNTINEVLGI
B3: Colicin Ia (protein, listed as Escherichia coli)
chain: MSDPVRITNPGAESLGYDSDGHEIMAVDIYVNPPRVDVFHGTPPAWSSFGNKTIWGGNEWVDDSPTRSDIEKRDKEITAYKNTLSAQQKENENKRTEAGKRLSAAIAAREKDENTLKTLRAGNADAADITRQEFRLLQAELREYGFRTEIAGYDALRLHTESRMLFADADSLRISPREARSLIEQAEKRQKDAQNADKKAADMLAEYERRKGILDTRLSELEKNGGAALAVLDAQQARLLGQQTRNDRAISEARNKLSSVTESLNTARNALTRAEQQLTQQKNTPDGKTIVSPEKFPGRSSTNHSIVVSGDPRFAGTIKITTSAVIDNRANLNYLLSHSGLDYKRNILNDRNPVVTEDVEGDKKIYNAEVAEWDKLRQRLLDARNKITSAESAVNSARNNLSARTNEQKHANDALNALLKEKENIRNQLSGINQKIAEEKRKQDELKATKDAINFTTEFLKSVSEKYGAKAEQLAREMAGQAKGKKIRNVEEALKTYEKYRADINKKINAKDRAAIAAALESVKLSDISSNLNRFSRGLGYAGKFTSLADWITEFGKAVRTENWRPLFVKTETIIAGNAATALVALVFSILTGSALGIIGYGLLMAVTGALIDESLVEKANKFWGI
B4: Colicin D (protein, listed as Escherichia coli)
chain: MSDYEGSGPTEGIDYGHSMVVWPSTGLISGGDVKPGGSSGIAPSMPPGWGDYSPQGIALVQSVLFPGIIRRIILDKELEEGDWSGWSVSVHSPWGNEKVSAARTVLENGLRGGLPEPSRPAAVSFARLEPASGNEQKIIRLMVTQQLEQVTDIPASQLPAAGNNVPVKYRLMDLMQNGTQYMAIIGGIPMTVPVVDAVPVPDRSRPGTNIKDVYSAPVSPNLPDLVLSVGQMNTPVLSNPEIQEEGVIAETGNYVEAGYTMSSNNHDVIVRFPEGSDVSPLYISTVEILDSNGLSQRQEAENKAKDDFRVKKEEAVARAEAEKAKAELFSKAGVNQPPVYTQEMMERANSVMNEQGALVLNNTASSVQLAMTGTGVWTAAGDIAGNISKFFSNALEKVTIPEVSPLLMRISLGALWFHSEEAGAGSDIVPGRNLEAMFSLSAQMLAGQGVVIEPGATSVNLPVRGQLINSNGQLALDLLKTGNESIPAAVPVLNAVRDTATGLDKITLPAVVGAPSRTILVNPVPQPSVPTDTGNHQPVPVTPVHTGTEVKSVEMPVTTITPVSDVGGLRDFIYWRPDAAGTGVEAVYVMLNDPLDSGRFSRKQLDKKYKHAGDFGISDTKKNRETLTKFRDAIEEHLSDKDTVEKGTYRREKGSKVYFNPNTMNVVIIKSNGEFLSGWKINPDADNGRIYLETGEL
B5: Colicin E9 (protein, listed as Escherichia coli)
chain: MSGGDGRGHNTGAHSTSGNINGGPTGIGVSGGASDGSGWSSENNPWGGGSGSGIHWGGGSGRGNGGGNGNSGGGSGTGGNLSAVAAPVAFGFPALSTPGAGGLAVSISASELSAAIAGIIAKLKKVNLKFTPFGVVLSSLIPSEIAKDDPNMMSKIVTSLPADDITESPVSSLPLDKATVNVNVRVVDDVKDERQNISVVSGVPMSVPVVDAKPTERPGVFTASIPGAPVLNISVNDSTPAVQTLSPGVTNNTDKDVRPAGFTQGGNTRDAVIRFPKDSGHNAVYVSVSDVLSPDQVKQRQDEENRRQQEWDATHPVEAAERNYERARAELNQANEDVARNQERQAKAVQVYNSRKSELDAANKTLADAIAEIKQFNRFAHDPMAGGHRMWQMAGLKAQRAQTDVNNKQAAFDAAAKEKSDADAALSAAQERRKQKENKEKDAKDKLDKESKRNKPGKATGKGKPVGDKWLDDAGKDSGAPIPDRIADKLRDKEFKSFDDFRKAVWEEVSKDPELSKNLNPSNKSSVSKGYSPFTPKNQQVGGRKVYELHHDKPISQGGEVYDMDNIRVTTPKRHIDIHRGK
B6: colicin E9 H575A: catalytically inactive colicin E9 variant (protein, UniProt P09883 1-582, looked up, variant H575A)
Colicin-E9: B5 chain with H575A

Assays:
[1] = tested on: adherent invasive E. coli isolates (AIEC) 95, 419, 615 and LF82; assay: spot test of purified colicin on a growing lawn of cells (zones of inhibition); assay type: cell-based; details: isolates 95, 419, 615 and LF82; 2 μl drop of 0.2 mg/ml colicin, 18 h
Protocol: Briefly, 25 μl of a log phase bacterial culture (OD600=0.6) was added to 5 ml of molten 0.8% agarose and poured on top of an LB agar plate. A 2 μl drop of each colicin (0.2 mg/ml) was spotted onto the overlay plate. The plates were incubated for 18 h and examined for zones of inhibition. All E. coli isolates tested were sensitive to the cytotoxic activity of the four colicin proteins, as indicated by the presence of clear zones representing cell killing (not shown).

[2] = tested on: AIEC in the biofilm state; assay: MBEC biofilm assay, viability by XTT; assay type: cell-based, E. coli; details: for ability to kill AIEC in the biofilm state: 6 additional strains of AIEC; for antimicrobial activity against biofilm-associated cells compared with ampicillin, metronidazole and rifaximin: all isolates; for relative effectiveness among colicins in killing AIEC in the biofilm state: multiple AIEC strains
Description: The clinically relevant state for AI E. coli in the infected gut mucosa is the biofilm state in which bacteria show enhanced tolerance to antibiotics. We therefore tested the ability of colicins to kill AI E. coli in the biofilm state using the MBEC Physiology and Genetics Assay (Innovotech). In this assay, biofilm growth occurs on 96 identical pegs protruding from the lid of a 96-well microtitre plate.
To determine the cytotoxicity of colicins against LF82 biofilms we compared the % cell survival of AIEC in biofilms treated with colicins with those exposed to antibiotics which are frequently prescribed in the treatment of Crohn's disease (FIG. 1). Biofilms were formed on the MBEC™ 96-peg plate platform for 24 h, then challenged for 1 h with 150 μl dilutions of the antibiotics (ampicillin, ciprofloxacin, metronidazole and rifaximin) and colicins (E1, E3, E9 and D) in sterile PBS in the concentration range 0.002 μg/ml-200 μg/ml. All dilutions of antimicrobials were done in triplicate and control antimicrobial-free biofilms were treated with 150 μl of sterile PBS. Following treatment, the viability of biofilm-associated cells was tested using the metabolic dye XTT. The XTT salt changes colour when it is metabolised by viable cells. This colour change can be compared to untreated antimicrobial-free biofilms, giving an indication of the percentage survival in biofilms exposed to the antimicrobials.
We further tested the ability of colicins E1 (a pore-forming colicin) E3 (a rRNase), E9 (a DNase), D (a tRNase) and IA (a pore-forming colicin) to kill 6 additional strains of AIEC in the biofilm state.

[3] = tested on: intracellular E. coli LF82 in infected murine macrophages (J774); assay: macrophage model of AIEC infection, colony counts of intracellular bacteria; assay type: cell-based; details: for killing of intracellular LF82 in infected macrophages: infected macrophages treated for 4 and 24 hours, FIG. 4
Protocol: AI E. coli are able to infect and replicate within macrophages and epithelial cells. To determine if colicin E1 is able to kill intracellular bacteria raw murine macrophages (J774) were infected with AI E. coli LF82 and treated with colicin E1 (FIG. 3).
Raw murine macrophages (J774) were grown in 24-well tissue culture plates in RPMI tissue culture media (containing 3% fetal calf serum, 1% […], 1% pen/strep) at 37° C. in 5% CO2 until the cells reached 70-80% confluency. The macrophages were then infected with E. coli LF82 at a multiplicity of infection of 50 (MOI 50). After 2 h of infection, the macrophages were exposed to the antibiotic gentamicin (100 μg/ml) to kill any bacteria outside the macrophage which hadn't successfully invaded the cell. The LF82-infected macrophages were then treated with colicin E1 (10, 0.1, 0.001 μg/ml) for 3 h at 37° C. The macrophages were then scraped from the surface of the plate, lysed with Triton X and the intra-cellular bacteria were plated on LB agar containing 50 μg/ml ampicillin for selection of LF82. The plates were incubated overnight at 37° C. and colony counts were performed.
Experiments were performed as described for colicin E1 except that infected macrophages were treated with colicin for 4 and 24 hours.

[4] = biological target: outer membrane receptor BtuB (Escherichia coli, UniProt P06129); details: read-out: affinity for outer membrane receptor BtuB; Housden et al., 2005; cited from earlier work
outer membrane receptor BtuB, sequence (P06129 21-614): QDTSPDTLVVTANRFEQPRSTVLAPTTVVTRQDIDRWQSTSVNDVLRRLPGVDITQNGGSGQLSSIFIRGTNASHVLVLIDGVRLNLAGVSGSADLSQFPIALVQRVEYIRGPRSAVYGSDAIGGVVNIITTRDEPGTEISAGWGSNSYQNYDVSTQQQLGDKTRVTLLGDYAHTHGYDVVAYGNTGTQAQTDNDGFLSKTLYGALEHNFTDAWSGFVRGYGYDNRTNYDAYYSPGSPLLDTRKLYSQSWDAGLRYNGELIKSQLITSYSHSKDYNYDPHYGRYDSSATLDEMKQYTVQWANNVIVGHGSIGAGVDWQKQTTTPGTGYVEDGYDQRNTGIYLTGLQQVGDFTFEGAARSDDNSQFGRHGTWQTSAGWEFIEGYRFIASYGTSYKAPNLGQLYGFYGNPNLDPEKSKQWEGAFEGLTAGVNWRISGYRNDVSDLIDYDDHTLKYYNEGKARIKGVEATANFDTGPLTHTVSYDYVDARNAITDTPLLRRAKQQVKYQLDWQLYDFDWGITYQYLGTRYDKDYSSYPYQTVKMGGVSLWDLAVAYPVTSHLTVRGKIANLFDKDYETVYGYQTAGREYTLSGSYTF

Molecule | sensitivity of AIEC isolates in spot tests [1] | ability to kill AIEC in the biofilm state [2] | reduction in the number of bacteria recovered from the macrophages ([3]; 10 μg/ml, 3 h, LF82-infected J774 macrophages) | antimicrobial activity against biofilm-associated cells compared with ampicillin, metronidazole and rifaximin [2] | relative effectiveness among colicins in killing AIEC in the biofilm state [2] | killing of intracellular LF82 in infected macrophages [3] | Kd [4]
B1 | sensitive | good killing activity |  |  |  |  | 
B2 | sensitive | good killing activity | ~80% | superior antimicrobial activity | most effective |  | 
B3 |  | good killing activity |  |  |  |  | 
B4 | sensitive | good killing activity |  |  |  |  | 
B5 | sensitive | good killing activity |  | superior antimicrobial activity | most effective | able to kill intracellular LF82 | 2 nM
B6 |  |  |  |  |  | no killing | 

Reference: US20150164984A1, “Colicins for Treating Bacterial Infections” (The University Court of the University of Glasgow, priority 2012, published 2015)
